Reference: IntAct's records for PubMed 29039417

B1: Protein PTHB1 (Homo sapiens), Q3SYG4 (parent)
chain: MSLFKARDWWSTILGDKEEFDQGCLCLANVDNSGNGQDKIIVGSFMGYLRIFSPHPAKTGDGAQAEDLLLEVDLRDPVLQVEVGKFVSGTEMLHLAVLHSRKLCVYSVSGTLGNVEHGNQCQMKLMYEHNLQRTACNMTYGSFGGVKGRDLICIQSMDGMLMVFEQESYAFGRFLPGFLLPGPLAYSSRTDSFLTVSSCQQVESYKYQVLAFATDADKRQETEQQKLGSGKRLVVDWTLNIGEQALDICIVSFNQSASSVFVLGERNFFCLKDNGQIRFMKKLDWSPSCFLPYCSVSEGTINTLIGNHNNMLHIYQDVTLKWATQLPHIPVAVRVGCLHDLKGVIVTLSDDGHLQCSYLGTDPSLFQAPNVQSRELNYDELDVEMKELQKIIKDVNKSQGVWPMTEREDDLNVSVVVSPNFDSVSQATDVEVGTDLVPSVTVKVTLQNRVILQKAKLSVYVQPPLELTCDQFTFEFMTPDLTRTVSFSVYLKRSYTPSELEGNAVVSYSRPTDRNPDGIPRVIQCKFRLPLKLICLPGQPSKTASHKITIDTNKSPVSLLSLFPGFASQSDDDQVNVMGFHFLGGARITVLASKTSQRYRIQSEQFEDLWLITNELILRLQEYFEKQGVKDFACSFSGSIPLQEYFELIDHHFELRINGEKLEELLSERAVQFRAIQRRLLARFKDKTPAPLQHLDTLLDGTYKQVIALADAVEENQGNLFQSFTRLKSATHLVILLIALWQKLSADQVAILEAAFLPLQEDTQELGWEETVDAAISHLLKTCLSKSSKEQALNLNSQLNIPKDTSQLKKHITLLCDRLSKGGRLCLSTDAAAPQTMVMPGGCTTIPESDLEERSVEQDSTELFTNHRHLTAETPRPEVSPLQGVSE
partner: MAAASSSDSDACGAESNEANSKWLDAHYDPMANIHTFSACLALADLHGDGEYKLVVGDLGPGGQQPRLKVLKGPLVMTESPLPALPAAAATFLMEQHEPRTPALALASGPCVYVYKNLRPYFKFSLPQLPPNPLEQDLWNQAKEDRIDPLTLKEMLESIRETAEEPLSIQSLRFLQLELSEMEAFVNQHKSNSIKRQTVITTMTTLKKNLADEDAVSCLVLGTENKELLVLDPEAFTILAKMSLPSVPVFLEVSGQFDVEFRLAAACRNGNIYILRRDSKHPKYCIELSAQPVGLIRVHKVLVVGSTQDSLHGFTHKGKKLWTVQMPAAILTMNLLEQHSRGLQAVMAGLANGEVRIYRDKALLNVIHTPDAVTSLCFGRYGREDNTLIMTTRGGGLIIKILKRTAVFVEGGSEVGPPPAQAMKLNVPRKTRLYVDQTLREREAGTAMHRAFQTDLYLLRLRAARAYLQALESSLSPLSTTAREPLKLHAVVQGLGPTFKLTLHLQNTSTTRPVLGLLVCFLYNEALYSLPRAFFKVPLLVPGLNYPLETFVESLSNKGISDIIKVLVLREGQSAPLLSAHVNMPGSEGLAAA

Variants of: B1
Details: with bbs1_human BBS1, Q8NFJ9
W768E was tested, and the “effect of a mutation on the interaction” value was “with no effect”. With W768K the “effect of a mutation on the interaction” value was “with no effect”. For E769A, the “effect of a mutation on the interaction” value was “with no effect”. For E769K, the “effect of a mutation on the interaction” value was “with no effect”. In the case of E770A, the “effect of a mutation on the interaction” value is reported as “with no effect”. For E770K, the “effect of a mutation on the interaction” value was “disrupting interaction strength”. For T771A, the “effect of a mutation on the interaction” value was “with no effect”. In the case of T771E, the “effect of a mutation on the interaction” value is reported as “with no effect”. In the case of T771K, the “effect of a mutation on the interaction” value is reported as “with no effect”. With T771S the “effect of a mutation on the interaction” value was “disrupting interaction strength”. With V772A the “effect of a mutation on the interaction” value was “with no effect”. For V772E, the “effect of a mutation on the interaction” value was “with no effect”. For V772K, the “effect of a mutation on the interaction” value was “with no effect”. D773A was tested, and the “effect of a mutation on the interaction” value was “with no effect”. With D773E the “effect of a mutation on the interaction” value was “with no effect”. D773K was tested, and the “effect of a mutation on the interaction” value was “with no effect”. In the case of A774E, the “effect of a mutation on the interaction” value is reported as “with no effect”. A774K was tested, and the “effect of a mutation on the interaction” value was “with no effect”. In the case of A775E, the “effect of a mutation on the interaction” value is reported as “with no effect”. A775K was tested, and the “effect of a mutation on the interaction” value was “with no effect”. In the case of A775T, the “effect of a mutation on the interaction” value is reported as “disrupting interaction strength”. In the case of I776A, the “effect of a mutation on the interaction” value is reported as “with no effect”. With I776E the “effect of a mutation on the interaction” value was “with no effect”. For I776K, the “effect of a mutation on the interaction” value was “with no effect”. With S777A the “effect of a mutation on the interaction” value was “with no effect”. With S777E the “effect of a mutation on the interaction” value was “with no effect”. In the case of S777K, the “effect of a mutation on the interaction” value is reported as “with no effect”. For H778A, the “effect of a mutation on the interaction” value was “with no effect”. H778E was tested, and the “effect of a mutation on the interaction” value was “disrupting interaction strength”. In the case of H778K, the “effect of a mutation on the interaction” value is reported as “with no effect”. For L779A, the “effect of a mutation on the interaction” value was “with no effect”. L779E was tested, and the “effect of a mutation on the interaction” value was “with no effect”. L779K was tested, and the “effect of a mutation on the interaction” value was “with no effect”. L780A was tested, and the “effect of a mutation on the interaction” value was “with no effect”. With L780E the “effect of a mutation on the interaction” value was “with no effect”. With L780K the “effect of a mutation on the interaction” value was “with no effect”. In the case of K781A, the “effect of a mutation on the interaction” value is reported as “with no effect”. In the case of K781E, the “effect of a mutation on the interaction” value is reported as “with no effect”. With T782A the “effect of a mutation on the interaction” value was “with no effect”. T782E was tested, and the “effect of a mutation on the interaction” value was “with no effect”. In the case of T782K, the “effect of a mutation on the interaction” value is reported as “with no effect”. In the case of C783A, the “effect of a mutation on the interaction” value is reported as “with no effect”. For C783E, the “effect of a mutation on the interaction” value was “with no effect”. In the case of C783K, the “effect of a mutation on the interaction” value is reported as “with no effect”. In the case of L784A, the “effect of a mutation on the interaction” value is reported as “with no effect”. L784E was tested, and the “effect of a mutation on the interaction” value was “with no effect”. L784K was tested, and the “effect of a mutation on the interaction” value was “with no effect”. In the case of S785A, the “effect of a mutation on the interaction” value is reported as “with no effect”. With S785E the “effect of a mutation on the interaction” value was “with no effect”. For S785K, the “effect of a mutation on the interaction” value was “with no effect”. In the case of K786A, the “effect of a mutation on the interaction” value is reported as “with no effect”. In the case of K786E, the “effect of a mutation on the interaction” value is reported as “with no effect”. With S787A the “effect of a mutation on the interaction” value was “with no effect”. S787E was tested, and the “effect of a mutation on the interaction” value was “with no effect”. In the case of S787K, the “effect of a mutation on the interaction” value is reported as “with no effect”. S788A was tested, and the “effect of a mutation on the interaction” value was “with no effect”. With S788E the “effect of a mutation on the interaction” value was “with no effect”. With S788K the “effect of a mutation on the interaction” value was “with no effect”. For K789A, the “effect of a mutation on the interaction” value was “with no effect”. In the case of K789E, the “effect of a mutation on the interaction” value is reported as “with no effect”. With E790A the “effect of a mutation on the interaction” value was “with no effect”. In the case of E790K, the “effect of a mutation on the interaction” value is reported as “with no effect”. Q791A was tested, and the “effect of a mutation on the interaction” value was “with no effect”. For Q791E, the “effect of a mutation on the interaction” value was “with no effect”. With Q791K the “effect of a mutation on the interaction” value was “with no effect”. With Q791L the “effect of a mutation on the interaction” value was “disrupting interaction strength”. A792E was tested, and the “effect of a mutation on the interaction” value was “disrupting interaction strength”. For A792K, the “effect of a mutation on the interaction” value was “with no effect”. With L793A the “effect of a mutation on the interaction” value was “with no effect”. L793E was tested, and the “effect of a mutation on the interaction” value was “with no effect”. L793K was tested, and the “effect of a mutation on the interaction” value was “with no effect”. In the case of N794A, the “effect of a mutation on the interaction” value is reported as “with no effect”. For N794E, the “effect of a mutation on the interaction” value was “with no effect”. In the case of N794K, the “effect of a mutation on the interaction” value is reported as “with no effect”. L795A was tested, and the “effect of a mutation on the interaction” value was “with no effect”. L795E was tested, and the “effect of a mutation on the interaction” value was “with no effect”. For L795K, the “effect of a mutation on the interaction” value was “with no effect”. For N796A, the “effect of a mutation on the interaction” value was “with no effect”. For N796E, the “effect of a mutation on the interaction” value was “with no effect”. N796K was tested, and the “effect of a mutation on the interaction” value was “with no effect”. With S797A the “effect of a mutation on the interaction” value was “with no effect”. For S797E, the “effect of a mutation on the interaction” value was “with no effect”. With S797K the “effect of a mutation on the interaction” value was “with no effect”. In the case of Q798A, the “effect of a mutation on the interaction” value is reported as “with no effect”. With Q798E the “effect of a mutation on the interaction” value was “with no effect”. Q798K was tested, and the “effect of a mutation on the interaction” value was “with no effect”. In the case of L799A, the “effect of a mutation on the interaction” value is reported as “with no effect”. In the case of L799E, the “effect of a mutation on the interaction” value is reported as “with no effect”. L799K was tested, and the “effect of a mutation on the interaction” value was “with no effect”. With N800A the “effect of a mutation on the interaction” value was “with no effect”. For N800E, the “effect of a mutation on the interaction” value was “with no effect”.
